What was measured:
[1] = target: monkey LAG-3 on cells (HEK293-cLAG-3 stable cell line) (monkey); assay: FACS, HEK293-cLAG-3, antibody 200.000 nM
[2] = target: LAG-3-hFc protein (human LAG-3 extracellular region with hFc tag) (human) (UniProt P18627); assay: FACS, inhibition of LAG-3-hFc binding to MHC II on Raji cells, antibody 0.274 nM
[3] = target: monkey LAG-3 on cells (HEK293-cLAG-3 stable cell line) (monkey); assay: FACS, HEK293-cLAG-3, antibody 8.000 nM
[4] = target: LAG-3-hFc protein (human LAG-3 extracellular region with hFc tag) (human) (UniProt P18627); assay: ELISA, inhibition of LSECtin-His binding to coated LAG-3-hFc, antibody 0.000 nM, replicate 1
[5] = target: monkey LAG-3 on cells (HEK293-cLAG-3 stable cell line) (monkey); assay: FACS, HEK293-cLAG-3, antibody 0.000 nM
[6] = target: human LAG-3 on cells (HEK293-hLAG-3 stable cell line) (human) (UniProt P18627); assay: FACS, HEK293-hLAG-3, antibody 200.000 nM
[7] = target: monkey LAG-3 on cells (HEK293-cLAG-3 stable cell line) (monkey); assay: FACS, HEK293-cLAG-3, antibody 0.320 nM
[8] = target: LAG-3-hFc protein (human LAG-3 extracellular region with hFc tag) (human) (UniProt P18627); assay: FACS, inhibition of LAG-3-hFc binding to MHC II on Raji cells, antibody 7.407 nM
[9] = target: LAG-3-hFc protein (human LAG-3 extracellular region with hFc tag) (human) (UniProt P18627); assay: ELISA, inhibition of LSECtin-His binding to coated LAG-3-hFc, antibody 1.600 nM, replicate 2
[10] = target: LAG-3-hFc protein (human LAG-3 extracellular region with hFc tag) (human) (UniProt P18627); assay: FACS, inhibition of LAG-3-hFc binding to MHC II on Raji cells, antibody 200.000 nM
[11] = target: LAG-3-hFc protein (human LAG-3 extracellular region with hFc tag) (human) (UniProt P18627); assay: ELISA, inhibition of LSECtin-His binding to coated LAG-3-hFc, antibody 40.000 nM, replicate 2
[12] = target: human LAG-3 on cells (HEK293-hLAG-3 stable cell line) (human) (UniProt P18627); assay: FACS, HEK293-hLAG-3, antibody 40.000 nM
[13] = target: human LAG-3 on cells (HEK293-hLAG-3 stable cell line) (human) (UniProt P18627); assay: FACS, HEK293-hLAG-3, antibody 0.064 nM
[14] = target: LAG-3-hFc protein (human LAG-3 extracellular region with hFc tag) (human) (UniProt P18627); assay: ELISA, inhibition of LSECtin-His binding to coated LAG-3-hFc, antibody 0.064 nM, replicate 1
[15] = target: human LAG-3 on cells (HEK293-hLAG-3 stable cell line) (human) (UniProt P18627); assay: FACS, HEK293-hLAG-3, antibody 0.064 nM; remark: listed apart in the source
[16] = target: LAG-3-hFc protein (human LAG-3 extracellular region with hFc tag) (human) (UniProt P18627); assay: ELISA, inhibition of LSECtin-His binding to coated LAG-3-hFc, antibody 0.000 nM, replicate 2
[17] = target: T1, human LAG-3 on cells (HEK293-hLAG-3 stable cell line) (human, UniProt P18627 23-525); assay: FACS, HEK293-hLAG-3, antibody 0 nM
T1 sequence: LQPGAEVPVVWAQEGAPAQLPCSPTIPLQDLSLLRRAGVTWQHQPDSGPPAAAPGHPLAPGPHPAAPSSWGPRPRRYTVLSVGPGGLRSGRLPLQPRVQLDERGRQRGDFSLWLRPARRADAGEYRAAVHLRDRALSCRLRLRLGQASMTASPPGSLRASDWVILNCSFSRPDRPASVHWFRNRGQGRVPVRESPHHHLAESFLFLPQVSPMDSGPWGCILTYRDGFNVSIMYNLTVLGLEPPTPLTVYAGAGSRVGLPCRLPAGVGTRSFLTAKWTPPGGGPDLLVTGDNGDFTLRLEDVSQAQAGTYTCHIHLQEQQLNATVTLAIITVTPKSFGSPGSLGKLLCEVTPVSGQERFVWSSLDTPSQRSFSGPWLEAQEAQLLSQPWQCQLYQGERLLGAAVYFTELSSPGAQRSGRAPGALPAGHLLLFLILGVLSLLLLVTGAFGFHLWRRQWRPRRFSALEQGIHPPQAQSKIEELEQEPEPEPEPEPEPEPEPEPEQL

[18] = target: T1, human LAG-3 on cells (HEK293-hLAG-3 …); assay: FACS, HEK293-hLAG-3, antibody 8 nM
[19] = target: T1, human LAG-3 on cells (HEK293-hLAG-3 …); assay: FACS, HEK293-hLAG-3, antibody 0.32 nM
[20] = target: T1, human LAG-3 on cells (HEK293-hLAG-3 …); assay: FACS, HEK293-hLAG-3, antibody 1.6 nM
[21] = target: T1, human LAG-3 on cells (HEK293-hLAG-3 …); assay: FACS, HEK293-hLAG-3, antibody 0.013 nM
Description: (§1) A. The binding of antibodies to LAG-3 expressing cells was detected by Flow cytometry (FACS), wherein the method was according to that of Example 5.

[22] = target: T1, human LAG-3 on cells (HEK293-hLAG-3 …); assay: FACS, HEK293-hLAG-3, antibody 40 nM
Description: as §1

Sequence of monkey LAG-3 on cells (HEK293-cLAG-3 stable cell line) (monkey) (P18627 other isoform, or with tags, fused parts or gaps limits assumed): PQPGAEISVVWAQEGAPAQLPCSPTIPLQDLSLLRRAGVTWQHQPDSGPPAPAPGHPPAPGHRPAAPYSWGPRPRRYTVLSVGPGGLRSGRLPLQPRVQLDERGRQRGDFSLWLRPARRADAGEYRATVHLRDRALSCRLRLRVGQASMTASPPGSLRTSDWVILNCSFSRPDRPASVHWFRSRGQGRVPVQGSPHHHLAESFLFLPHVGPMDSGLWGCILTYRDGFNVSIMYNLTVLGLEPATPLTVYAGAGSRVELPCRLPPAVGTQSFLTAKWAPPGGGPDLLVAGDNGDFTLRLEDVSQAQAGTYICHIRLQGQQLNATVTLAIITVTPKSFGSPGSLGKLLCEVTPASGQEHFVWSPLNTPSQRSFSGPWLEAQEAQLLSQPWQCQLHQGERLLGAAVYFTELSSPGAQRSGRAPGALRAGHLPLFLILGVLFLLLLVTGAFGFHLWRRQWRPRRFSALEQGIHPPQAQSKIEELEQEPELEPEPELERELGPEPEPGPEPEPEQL

## hIgG control (antibody)
[1]
  Mean fluorescence intensity: 2.9
[2]
  Inhibition rate (%): 8.1%
[3]
  Mean fluorescence intensity: 3.16
[4]
  Inhibition rate (%): 3.1%
[5]
  Mean fluorescence intensity: 2.86
[6]
  Mean fluorescence intensity: 3.1
[7]
  Mean fluorescence intensity: 3.13
[8]
  Inhibition rate (%): 8.8%
[9]
  Inhibition rate (%): -7.4%
[10]
  Inhibition rate (%): 12.3%
[11]
  Inhibition rate (%): -3.5%
[12]
  Mean fluorescence intensity: 3.1
[13]
  Mean fluorescence intensity: 3.1
[14]
  Inhibition rate (%): -26.4%
[15]
  Mean fluorescence intensity: 4
[16]
  Inhibition rate (%): -3.6%

B1: 556F6B8 mouse-human chimeric antibody (antibody, V domains shown)
VH: RVQLKQSGPGLVQPSQSLSITCTVSGFSLIKYGVHWVRQSPGEGLEWLGVIWRGGITDYNAAFMSRLSITKDNSKSQVFFKMNSLQADDTAIYYCAKWDGPLAMDYWGQGTSVTVSS
VL: DIVMTQSHKFLSTSVGDRVSITCKASQDVGTTVAWYQQKPGQSPKLLIYWASTRHTGVPDRFTGSGSGTDFTLTISNVQSEDLADYFCQQYSSYPYTFGGGTKLEIK
notes: also called mAb123-556F6B8; 556F8B8
[17]
  Mean fluorescence intensity: 4
[18]
  Mean fluorescence intensity: 90
[19]
  Mean fluorescence intensity: 29

B2: 405B8H3 mouse-human chimeric antibody (antibody, V domains shown)
VH: QVQLQQSGAELVRPGASVTLSCKASGYTFTDYEMHWVKQTPVHGLEWIGATDPETGNSAYNQKFKGKAIMTADKSSSTAYMELRSLTSEDSAVYYCISTGWNDWGQGTSLTVSS
VL: DIKMTQSPSSMYASLGERVTITCKASQDINSYLSWFQQKPGKSPKTLIYRADRLLDGVPSRFSGSGSGQDYSLTISSLEYGDMGIYYCLQYDEFPYTFGGGTKLEIK
notes: also called mAb103-405B8H3
[20]
  Mean fluorescence intensity: 139
[21]
  Mean fluorescence intensity: 9
[22]
  Mean fluorescence intensity: 266

From patent US20210155689A1 (SHANGHAI PHARMAEXPLORER, published 2021)
